# Experimental data as given in patent US20100310588A1.
# Target: BDC2.5 T cell receptor (transgenic TCR alpha/beta of BDC2.5 TCR Tg mice) (mouse)
# Test: cell-based or functional assay
substance,measurement,value
p31-I-A^g7 multimer (recombinant MHC class II I-A^g7 presenting the BDC2.5 TCR mimotope peptide 1040-31) (peptide-MHC),"fold expansion of antigen-specific cells during the 10 day culture (lowest seeding, 0.001%)",5000 fold
